Data published in patent US20200270586A1.

Biological target: LgTrip 3546 (with His tag; SEQ ID NO: 51)
Assay: not given
Conditions: modification not given

Chain of LgTrip 3546 (with His tag; SEQ ID NO: 51) (chain, as listed by the source): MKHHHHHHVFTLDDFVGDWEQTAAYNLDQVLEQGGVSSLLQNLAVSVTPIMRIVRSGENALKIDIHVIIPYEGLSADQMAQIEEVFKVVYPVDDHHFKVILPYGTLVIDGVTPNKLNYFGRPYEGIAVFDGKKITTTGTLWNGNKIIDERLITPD

Kd | Binder
230 nM | SSWKRGSMLFRVWINS [427]

Biological target: LgTrip 3546 (with His tag; SEQ ID NO: 51)
Assay: luminescence complementation
Conditions: modification not given

Kd | Binder
180 nM | EKMLFRVTIGRWK [709]
220 nM | EKMLFKVTIQKWK [714]
2690 nM | GKMNFRVTINSWK [618]
2580 nM | GKMLFRVSINSWK [614]
1510 nM | GSMLFRVTINSYK [619]
610 nM | DKLLFKVTIGKYK [751]
160 nM | KLMLFRVTINSWK [653]
320 nM | DKMLFKVTIEKWK [752]
60 nM | KQMLFRVTINSWK [654]
40 nM | RLMLFRVTINSWK [651]
17800 nM | DKMLFRVTIESWK [722]
440 nM | DKMLFKVTIGKWK [748]
30 nM | GKMLFRVTISKWK [670]
350 nM | GKMLFRVWINSWK [615]
3650 nM | DKMLFRVTIGNWK [740]
40 nM | GKMLFRVTIKKWK [673]
20 nM | RLMLFRVTIGKWK [676]
290 nM | GKMKFRVTIQSWK [716]
360 nM | EKMLFTVTIEKWK [720]
280 nM | EKMLFRVTIGKWK [708]
15900 nM | ELMLFRVTINSWK [655]

Second part, the binder before the results:

Binder | Kd
GKMLFRVTINRWK [701] | 120 nM
DKLLFKVTIQKWK [746] | 1100 nM
DKMLFKVTIQKWK [744] | 1130 nM
GKMLFRVNINSWK [613] | 5250 nM
DKLLFKVTIGKWK [750] | 350 nM
GKMSFRVTINSWK [616] | 1230 nM
RQMLFRVTINSWK [652] | 30 nM
GKMLFRVTIKSWK [621] | 40 nM
GKMKFRVTIKSWK [718] | 380 nM
DKLLFKVTIEKYK [755] | 1450 nM
GKMWFRVTINSWK [617] | 320 nM
DLMLFRVTINSWK [657] | 70 nM
DKMLFRVTIQKWK [738] | 230 nM
DKMLFTVTIGKWK [749] | 1700 nM
EKLLFRVTIGKYK [726] | 640 nM
DKLLFKVTIEKWK [754] | 750 nM

Binder | Kd
EQMLFRVTINSWK [656] | 6260 nM
DKMLFRVTIEKWK [742] | 750 nM
DQMLFRVTINSWK [658] | 4380 nM
GKMKFRVTIRSWK [719] | 370 nM
DKMLFTVTIEKWK [753] | 120 nM
DKMLFRVTIGKWK [739] | 200 nM
EKLLFTVTIGKWK [711] | 500 nM
EKMLFTVTIGRWK [712] | 370 nM
DKMLFRVTIQNWK [741] | 12600 nM
GKMLFRVTIEKWK [703] | 110 nM
EKMLFRVTIEKWK [707] | 1120 nM
GKMKFRVTIESWK [717] | 1140 nM
GKMLFRVTITKWK [672] | 10 nM
EKMLFTVTIGKWK [710] | 1290 nM
GKMLFRVTIGNWK [669] | 380 nM
DKLLFKVTIQKYK [747] | 100 nM

Biological target: LgTrip 3546 (with His tag; SEQ ID NO: 51)
Assay: luminescence complementation; SmTrip9 Kd
Conditions: modification not given

Kd | Binder
100 nM | GRMLFRVTINRWR [768]
9750 nM | DKLLFTVTINKYK [800]

Continued, binder first:

Binder | Kd
DKMLFKVTIEKYK [785] | 380 nM
ERMLFRVTIGRWR [766] | 70 nM
KKLLFRVTIQKWK [761] | 20 nM
DRMLFRVTIQRWR [762] | 120 nM
DKMLFKVTIQKYK [783] | 240 nM
DKLLFTVTIGKWK [793] | 540 nM
DKMLFTVTINKWK [786] | 500 nM
DKMLFRVTIQKWK [738] | 110 nM
DKMLFTVTIGKWK [749] | 1060 nM
DKMLFRVTIEKWK [742] | 1000 nM
DRMLFRVTIERWR [770] | 350 nM
KKMLFRVTIQKWK [760] | 20 nM
DKMLFTVTIEKWK [753] | 150 nM
DKLLFTVTIGKYK [794] | 230 nM
DKLLFTVTINKWK [799] | 210 nM
GKMLFKVTINKWK [781] | 380 nM
GKMLFTVTINKWK [782] | 360 nM
DKMLFRVTINKWK [784] | 410 nM
DKMLFKVTINKWK [787] | 730 nM
